Consider two substances from US20220127633A1.

For assay [1], the target named is TIR1 receptor protein with 6 His, maltose-binding protein (MBP) and FLAG affinity tags, expressed in insect cell culture using a recombinant baculovirus (UniProt Q570C0). Nature of the assay: SPR; with 2,4-D.
Assay [2] shares this target. Nature of the assay: SPR; with dicamba.
Assay [3] shares this target. Nature of the assay: SPR; with IAA (auxin).

As to “biotinylated Sisymbrium orientale IAA2 wild-type degron peptide”, the koff in assay [1] is 1.93E-03 ?; in assay [2], 3.29E-02 ?; in assay [3], 2.08E-04 ?.
The matching figures for “biotinylated Sisymbrium orientale IAA2Δ27 degron peptide (9 amino acid deletion in the degron tail)”: 2.71E-03 ?, 4.04E-02 ? and 5.01E-04 ?.
